Test results reported in the DeepSol protein solubility set.

Assay: soluble on expression in E. coli; label from the status in PepcDB or PDB records

**Q.** With “MAHHHHHHMLHCSREEVGELLIDSCKRSVGTSVELDTLLSNKNTSKVAPDATAATIMQVRMMYGKDDSGDLSYAEMTRLVEGLSSSKDLTERILKPFEDDNRHTIAFSEFAKVYSNAVSFKELGYVFQDLAGGQQTISRDTFASFVCDIQDEDWDAETLNEKLALMGCVGIDGITENNFVGYIMSPYFDFAMEKKLTGVYQDMDQIMCCYFISSSHNTYLTGDQLTSKSSAQMYKKGASRRVPVREAICRNGPHGEPIVCHGYTRTSCIAFEECVKMIRQYAFTASAYLVILSLGVHTSVEQQDKMAEILEEGLGSLLFWPPWGSNEKPTMAFSPNNLKNKILVKAKRGDFPAREPRVDKDDDATETDSMASTNNADYLKMKEARRKAGKDEVRVSAKLSAIVSIESSKYQGVKDLSYLKDKQPHHCSSYSERKGKAIVREAHNALVCINDTCLSRVFPAGSRIDSSNYRPLLYWVSGCQMVAINWQSSDTFGWRLNGCIFLDSGCCGYLLKPDYLRPVTCPDVAVPEYLRSLTVEVIWGFALPSAKQARGCRPVCDSFPRGP” as the sequence, how does the “soluble on expression in E. coli” value read?
**A.** not soluble

**Q.** With “MAHHHHHHMLMVPMKFARAHLRRLHALQPTPTFAIECSLPFLCAWRAMKHRSLAPDDPFGERSTFSDPSDGLFAAWSGVDFNAFADAASSDEVRTAHFGPEWSRFATVGRLSVKIMREQGTPGVASAVSSKGGNKVLPRPPTAEELHSRELQARRKALEGNYATYEQYVMKELGIEDGGNEDEHMEEEMDDATEVANASEESMPLPHFMVERGEGQAHANDTNKQESTNGKPLLRTREGLQVPEPLMQMILDALGEPHGDRHLPRSDPLHWNTEVVILWVRKLEAARFALVSAAGTGEASLLEAPLMEDPSMHEAFRMARTNGKFLLHHTVPNTMFQVMRRWYLRRQEIALTFMKERQEMKNTTSISKDDVNDATFKSALEAGRAKLDELAAKVTPILIQETISQCYPYCH” as the sequence, how does the “soluble on expression in E. coli” value read?
**A.** not soluble

**Q.** Which “soluble on expression in E. coli” value does the source give for “MAHHHHHHMLNPTFSLYRKTLQSYPVPPKIRHYDRRWSGSRTNPYNRQYWRVIMNENYSRPSFWVSDFRHRYLMRTGTDYQGQVPSSPQPGLYQGFSDVHKLLANHPKPQRESRHLPVLPMTPRVVFEHANEKRIDTAKKMRRDRRRIEELKTLEFWGWYMKLQRVRGRWCREQGVSSRGVYGPAVDAAELWG” here?
**A.** not soluble

**Q.** With “MAHHHHHHMLQSPKGINILITGTPGTGKTSLAELLAQELGDFKHVEVGKIVKENHFYSEYDNALDTHIVEEDDEDRLLDFMEPMMVNEGNHVVDYHSSELFPRRWFHLVIVLRASTEVLFERLTARRYSEQKRDENMEAEIQGLCEEEARGAYDDSIVIVRENNTLEEMAATVDLIRLRVESLRGNAA” as the sequence, how does the “soluble on expression in E. coli” value read?
**A.** not soluble

**Q.** With “MAHHHHHHMLRRTSFNFTGRAMISRGSPEWSHRLDLKKGKKTTMMHKLGTSKPNNALQYAQMTLHDLTEWCLAYSPWPLTFGLACCAVEMMHAYASRYDLDRFGIVPRPTPRQAEIIIVSGTVTNKMAPILRNIYVQMVNPKWVISMGSCANGGGYYHFSYAVLRGCERAIPVDFWIPGCPPSAESLVFCLHTLQKKIRWHEIQKYSVRD” as the sequence, how does the “soluble on expression in E. coli” value read?
**A.** not soluble

**Q.** Which “soluble on expression in E. coli” value does the source give for “MAHHHHHHMLRRVTCMAASVGRAAAALSVSPVMAQIPSAMRPPSKASTSAVASLLPPCCQPIYQQRRCYASRSGEEKGNADKGTQAAAAAVSTTPGTATAEAVRYFAANEQNADAAARAQGSVKQQEQLSAAAANGGDAATSGIRTIGIKLTEDDELVRAFNNFSKSVNGCTQEEFLIGAKQAYYSLAVVISAFLEHGQPLAGRTESTKMIAAAHEAAKLLDKEFKPESRCDAAATSLASKAEGDGTDDSSSSSSKTKLQESLVRNVVSTIVSLIPVSRHLAESIFKIWLLHKVKQVNLSSIASPADYVLDSKLVIFARLGKARMYFNSDNVGAEVDVTFSNDYLRKLDPASVAGSGAAGSSQMADAAGKVDEDDFDTGMIQVHTDTDANAHRTTAEEHTFVVNKATRTLTPTGSTAASTAAAAAAASTDAARRSGGNSASAGAGGASAADSAKSSGTASRIQVTCVKTTDFLRKSASAATVAATAVRDEAAAKTAAPNESSGEEEEEAHSVYIKVNGNMLPPIPASAHACALLTVDVVVPPERYAYNFEWFYKRIVGYENEYERIAAARVFASNSPKPLASFLDFFMRMVTGKPVEFMFSKAIGRMIGIPDDVSQTPPATRKLMCMYMDQSYKWVLADLVTLAPVMETKLPKA” here?
**A.** not soluble

**Q.** For “MAHHHHHHMLTIRVGNLPVCLCSNLRNTFNPTYAFGVKRNDGTVALLDGKSGHLLLPFDAEGNIIVTPGADYQLVFLSNDSTSSTVHTTQGLGKGGTNKTSHDFELTKALAKDGSIHREKRRLDDGRATSRERFHKGNAHYSVSDSKPTKRRKRDHSVDKDAVVEAEFGSQSINKKERSVKASRKDSNREDSDDPDDIPIFCTLAGKPTPAPISSNHTPTVSPAPKEVYLVDNFDPTTRPAHSEEGALDSSATELISS”, which “soluble on expression in E. coli” value is on record?
**A.** soluble

**Q.** Which “soluble on expression in E. coli” value does the source give for “MAHHHHHHMLTRSERGMCNGRVPTKGLVGFLSGSSTGTEWRDEYLGVNAIVHGPAEKRIGVPNGVTFQGSWAEWPVGDMGQTVPYYFANNKFTLVATVSIHEVPKEDSSPIPLIGVRMNDTSSTVLFALSYTHDRKWLAIPEDAGGVEDLFGWEPHTTYQAVLRMTLDEWTAFVDQREIDRKSYNENLFDSHRISHFYIGGDSNDQSATDGHVTVTNVMLYNEDLYNNELYEPNASKVNIPSLGVEEHPTGQVTSTEVSVVHESKSEEITASCAELNEDDTDKQEEETASMIRCLQRPLPRLTRDHLFLSLPSQRRAQGMTVQRTMSSFTRAKRPSKPRRMKRINRCNGVQTCSHKTHSQRN” here?
**A.** not soluble

**Q.** For “MAHHHHHHMLTTYNIIWKKEEEDDSLNIEKRNRLFHEHVKEQKNDILSPSEFDLLVNDIEDLLEEQQINETEKLYKVSKSPNEKFNKKYKLSITDLSAQLWCEQQLELVLTTGKRRETEAMRLGIERHEILEKADHLIVNVEVNTREESLGYRLLNSITLLGQLFQTKKAREVWVFGIIRNYVLRGIIDELRIEYDNVTKKEYLIISDTKTRKEKKEPSLAQKRTSAIQVQTYCLILQQLKNGKADFKKLFEIYECDPLFEFTAVDLVKYKNLENLSIELNKLFMKLPKIKEEMEIVYEHEGKEFSRNLIPYFYHSTLYTINILLDYWDGKRSSDVVENSDKWKCKFCDFVKNCVRCPLDY”, which “soluble on expression in E. coli” value is on record?
**A.** not soluble

**Q.** For “MAHHHHHHMLVRRSLSKKRSVIRGRNSRDLRVSSYIRVCTCTYVRNLCCRRLAYYDVCGESWSHARPFSPNSAMDYSLSVFRVLCPFVKTFFLFTLPCLTEGEGRVKSLIRWWEKKTCAEILMSSHAYLGLLRFICDLYTSFKGYVSRWHCPARRTAVLSCLSAAIGADGGVGPWLLLFVRAAVLRVLSLRQHPQTTQGEGRLARLVQPNQSGGHERHQQ”, which “soluble on expression in E. coli” value is on record?
**A.** not soluble

**Q.** For “MAHHHHHHMMRERAAALDDLNALLTVNKDHPQGLALRMSLNTQLGNLVDAHRDGKHLVRVYKALNKPDKSQQTSEKVHRLERYTVRWTALSDLWSQPVGAYTAATNDAVLMRKYRECVDLLARIIHEFSMESVELRLRRAACALAADDNIAATQELKYVTQRSPQNLDAIALNAQALRRLGALDQSMSELRRCLNLDPEYAPCANLHKLIRQQQRMTKNIEKRLQEKKFEAVVQLIAETRAAEPHAPYEEQLAAWHCEALVSLRSTDEGIRVCQALVDRYDGANNPTVFDAHIRLAELHLLDDNIAAAEAALQKAREIRQHDGKVEEMRLKIEKLKRTGPRKDYYKILGLKKTASAQEIRRAYRKLAKSSHPDQLRSKDMTDREREKQEKMFRDVNEAKEVLLDEEKRARYDSGEDVNQPAGQRGEPFFGSHFAGGFPGGFPGGFPGGFPGGFPGGFHQQRDGGVHQQFFFFNREN”, which “soluble on expression in E. coli” value is on record?
**A.** not soluble

**Q.** For “MAHHHHHHMMYTGEIENGQMHGRGCLIYPNKEKYEGDWVYGKRHGHGVYTYADGSKYDGEWVEDKVHGKGTCYYASGNRYSGDWTFGRINGRGTLEYADGDRYDGEWKDGRMHGKGLYYYSNGDRYDGEWKDDKRHGKGTVTYAGPDGSVSEKFDGDWVEGRMQGWGKYYYADGGVYEGEWQDGKMHGKGTYIFPNGNKYEGEWCDDVKQGYGVLTYVNGERYEGYWLDDKAHGTGTLTYLQGDRYTGEWYQGKKHGRGTLAYSNKDTYEGEWRNDSATGRGVLEYANGCRYEGDWLDDRRHGEGQLLLPDGSSYEGGWVNGKKEGRARIILKCGAVFVGTWKDNLIVGQGEFYLSENCDLNNPDY”, which “soluble on expression in E. coli” value is on record?
**A.** soluble
